Where a chain is given by its changes, count along the chain named. In names and notes the source's numbering stands.

This series has as its target MspA-((Del-L74/G75/D118/L119)D56F/E59R/L88N/D90N/D91N/Q126R/D134R/E139K)8.

B1: T4 Dda-F98W/E94C/C109A/C136A/K194L/A360C (protein)
chain: GTFDDLTEGQKNAFNIVMKAIKEKKHHVTINGPAGTGKTTLTKFIIEALISTGETGIILAAPTHAAKKILSKLSGKEASTIHSILKINPVTYECNVLWEQKEVPDLAKARVLICDEVSMYDRKLFKILLSTIPPWATIIGIGDNKQIRPVDPGENTAYISPFFTHKDFYQCELTEVKRSNAPIIDVATDVRNGLWIYDKVVDGHGVRGFTGDTALRDFMVNYFSIVKSLDDLFENRVMAFTNKSVDKLNSIIRKKIFETDKDFIVGEIIVMQEPLFKTYKIDGKPVSEIIFNNGQLVRIIEAEYTSTFVKARGVPGEYLIRHWDLTVETYGDDEYYREKIKIISSDEELYKFNLFLGKTCETYKNWNKGGKAPWSDFWDAKSQFSKVKALPASTFHKAQGMSVDRAFIYTPCIHYADVELAQQLLYVGVTRGRYDVFYV
For the protein B1, the % complement bases missed through slipping amounted to 1.9%, the Average slip length came to 23.3, the Number complement slips per 3.6 kb (slips per 3.6 kb) was 3 and the Number complement slips per kb was 0.8 slips per kb. Moreover, the Total length of complement slips stood at 70.

B2: T4 Dda-E94C/F98W/C109A/C136A/K199L/A360C (protein)
chain: B1 chain with L194K, K199L
In turn, B2 showed a % complement bases missed through slipping of 3.6%, an Average slip length of 21.5, a Number complement slips per 3.6 kb (slips per 3.6 kb) of 6 and a Number complement slips per kb of 1.7 slips per kb. Further, the Total length of complement slips came to 129.

The record behind these values is patent US20180179500.
